In the supplement of paper PMC10567573 one finds protein stability index data, which are given here for 72 sequences.

± gives the standard deviation.

This data set in a line: protein stability index of a GFP-peptide fusion (GPS, HEK-293T) (PSI 1-6); higher = more stable.
Setting [1] is: treatment: DMSO, c terminus: a fixed tail appended.
Setting [2] is: treatment: MLN4924 1 uM, 8 h, c terminus: a fixed tail appended.
[3] abbreviates: treatment: DMSO, c terminus: native.
[4] abbreviates: treatment: MLN4924 1 uM, 8 h, c terminus: native.
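Also: 24-mer peptide tiles fused after GFP, lentivirally expressed, FACS-sorted into six equal bins by GFP/DsRed ratio, decoded by Illumina sequencing, PSI is the read-weighted mean bin number.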

Consider TFEQAIQAASRIIRNEQFAIRRFQ [CDC25B], for which the protein stability index is, setting by setting: under setting [1], 2.38 ± 0.48; under setting [2], 2.01 ± 0.32.
EAASFLQILPVLDFCKVFLISGVT [KLHL13]: the protein stability index by setting is: under setting [1], 3.43 ± 0.78; under setting [2], 2.96 ± 0.13.
As to LDPSFPVEFVRHGDIIRLEHKETS [POMT2], the protein stability index by setting is: under setting [1], 5.71 ± 0.17; under setting [2], 5.59 ± 0.25.
The like results for VLSSTPDHSFSLELGSEVDITEGD [ATF4] were, in that order, 5.32 ± 0.43 and 5.44 ± 0.11.
Turning to FLQKVAQMPQEEVELLPPAPKGKG [BRD3], the protein stability index runs as follows: under setting [1], 4.24 ± 0.17; under setting [2], 4.32 ± 0.13.
GTPTSHVYMFKNGSGDSGDSSEEE [LYSMD4]: the protein stability index amounted to 5.37 ± 0.4 under setting [1] and 5.39 ± 0.28 under setting [2].
ACIAYIRITQYLDAGGIPRTAQSE [CAMK2A] returned a protein stability index under setting [1] of 2.64 ± 0.42 and a protein stability index under setting [2] of 2.81 ± 0.39.
For TATREEASTSLPTKPTQGASSASE [CLPTM1], the protein stability index was found to be 5.47 ± 0.34 under setting [1] and 5.4 ± 0.46 under setting [2].
In the same order, the values of LYAVGGHDGSSYLNSVERYDPKTN [KLHL20] are 3.72 ± 0.22 and 3.79 ± 0.23.
Regarding QALGEHLKLRQQVIATATVYFKRF [CCNC], the protein stability index amounted to 2.54 ± 0.55 under setting [1] and 2.48 ± 0.42 under setting [2].
In the same order, the values of DKQKLKRTEIISRSWFPSAPGSAS [YJU2B] are 3.56 ± 0.21 and 3.71 ± 0.12.
FREVYVGKETMCTVDGLHFNSTYN [TRIM9]: the protein stability index by setting is: under setting [1], 2.23 ± 0.098; under setting [2], 2.4 ± 0.28.
On to PVVKLLHNRSNNKYSYTSTSDDNL [KCTD13], for which the protein stability index by setting is: under setting [1], 3.82 ± 0.16; under setting [2], 3.94 ± 0.19.
On to RLREAAALGDIREVQKLVESGVDV [ANKRD40], for which the protein stability index reads like this: under setting [1], 4.28 ± 0.23; under setting [2], 4.19 ± 0.077.
In turn, QEQVAGGEAQPGLPQEDPSTSQGC [FEM1A] showed a protein stability index under setting [1] of 5.34 ± 0.12 and a protein stability index under setting [2] of 5.42 ± 0.43.
In the case of AQDLMDGLPPGDSNQLAWFDTDL [CTNNB1], the protein stability index is, setting by setting: under setting [3], 5.29 ± 0.094; under setting [4], 5.09 ± 0.081.
FEEPEDPSNRSFFSEIISSISDVK [PPP2R2B] gave a protein stability index under setting [1] of 4.09 ± 0.18 and a protein stability index under setting [2] of 4.32 ± 0.15.
As for VSSSVIEQLFFVRLVGKTPIETLI [NR2F2], the protein stability index runs as follows: under setting [1], 2.74 ± 0.58; under setting [2], 3.05 ± 0.37.
With LRDPLTSLSHTELEAAEVILEHAH [FCHSD1], the protein stability index under setting [1] came to 4.29 ± 0.25 and the protein stability index under setting [2] was found to be 4.44 ± 0.32.
Consider LFPASPTREAHRESSVPVTPSVPP [FBF1], for which the protein stability index is, setting by setting: under setting [1], 4.88 ± 0.19; under setting [2], 4.84 ± 0.11.
The like results for PTCPVCKDRASPADLRTNHTLNNL [TRIM35] were, in that order, 3.62 ± 0.21 and 3.9 ± 0.46.
Turning to ICAAAGRMGATMAAINSIYSNTDA [GLT8D2], the protein stability index was determined as 2.26 ± 0.43 under setting [1] and 2.2 ± 0.34 under setting [2].
Sequence ELPKPEVISQLEQGTELWVAERGT [ZNF8] registered a protein stability index under setting [1] of 4.76 ± 0.17 and a protein stability index under setting [2] of 4.82 ± 0.66.
The like results for PENTNRQLLLQFERLVVLDYIIRN [PI4K2A] were, in that order, 2.77 ± 0.34 and 2.56 ± 0.68.
Consider QNQEYKMLLDIKTRLEQEIATYRS [KRT15], for which the protein stability index was determined as 3.31 ± 0.18 under setting [1] and 3.46 ± 0.37 under setting [2].
On to HLYIYSIHSIPKGTEITIAFDFDY [KMT2E], for which the protein stability index by setting is: under setting [1], 3.39 ± 0.45; under setting [2], 3.08 ± 0.33.
The like results for MLRTGLGVIRMWADEGSRNSRFQM [NETO1] were, in that order, 2.5 ± 0.11 and 2.39 ± 0.4.
For the sequence PQLRICLRVSPAEQPRLEFLMRKC [FBXO33], the protein stability index was determined as 2.15 ± 0.48 under setting [1] and 2.11 ± 0.22 under setting [2].
Take YETKKHLVQLPNINRVSTCYSEEI [PPEF2]: the protein stability index is 3.33 ± 0.32 under setting [1] and 3.23 ± 0.53 under setting [2].
MEKMLAGCFLLILGQIVLLPAEAR [MATN2] registered a protein stability index under setting [1] of 3.46 ± 0.56 and a protein stability index under setting [2] of 3.01 ± 0.3.
As for APPSPRDISMEIDSPENMMRHIRF [CCDC6], the protein stability index runs as follows: under setting [1], 3.51 ± 0.28; under setting [2], 3.65 ± 0.26.
Take QELIQEAKPRATWTLKLDGNLQLD [RTP4]: the protein stability index reads like this: under setting [1], 3.886 ± 0.038; under setting [2], 3.82 ± 0.32.
With ESCEKNDPLSLLDDSKFPIEDTPL [PCDHGA10], the protein stability index under setting [1] worked out at 5.5 ± 0.34 and the protein stability index under setting [2] is 5.463 ± 0.028.
SNYIFVAIFWIVFLLLIVFYTAIT [P2RY14] registered a protein stability index under setting [1] of 2.26 ± 0.26 and a protein stability index under setting [2] of 2.1 ± 0.41.
Consider ISNIFSNYFSAMYSSEDSTLASVP [ELF3], for which the protein stability index runs as follows: under setting [1], 2.2 ± 0.25; under setting [2], 2.1 ± 0.18.
As to LRHSNPRADPLVCATGLLGSAPFL [SPNS1], the protein stability index runs as follows: under setting [1], 2.28 ± 0.31; under setting [2], 2.75 ± 0.39.
Take GEDEENREHRVRRIHVRRHITHDE [KCTD13]: the protein stability index was found to be 5.23 ± 0.2 under setting [1] and 5.1 ± 0.29 under setting [2].
For PQVLADLGSFESPANSETSDLTLY [PCDHGA10], the protein stability index by setting is: under setting [1], 4.19 ± 0.36; under setting [2], 4.38 ± 0.34.
In the same order, the values of HLSRLCVRHNLGDTRLGQVSALPL [SPSB2] are 2.38 ± 0.14 and 2.54 ± 0.33.
LSTPDSQSLRCDLIRYICGVVHPS [INTS3] gave a protein stability index under setting [1] of 2.29 ± 0.46 and a protein stability index under setting [2] of 2.29 ± 0.3.
GGIETGSITEMFGEFRTGKTQICH [RAD51]: the protein stability index runs as follows: under setting [1], 3.63 ± 0.34; under setting [2], 3.71 ± 0.51.
The like results for EEDRPLGGGEGHQPAGNRRGQARR [BEX3] were, in that order, 5.72 ± 0.14 and 5.563 ± 0.048.
In the same order, the values of IVALYIASGLTGFIGLEVVAQLFN [ATL3] are 3.24 ± 0.094 and 3.31 ± 0.33.
As for LREKLRLREAEIARIRDEEAQRAS [LRRC45], the protein stability index is, setting by setting: under setting [1], 4.17 ± 0.56; under setting [2], 4.65 ± 0.18.
SVSLRKAERLRAELLDLKAGGFSI [MYORG] yielded a protein stability index under setting [1] of 2.25 ± 0.36 and a protein stability index under setting [2] of 2.39 ± 0.29.
In the same order, the values of DRSVQRLLATRIAVYLMTFLIVTV [TMEM175] are 3.15 ± 0.3 and 3.31 ± 0.31.
On to YGLRGPHKADSIQGTARTLSPVLE [TNXB], for which the protein stability index is 3.93 ± 0.36 under setting [1] and 3.84 ± 0.14 under setting [2].
Turning to DSEDFPQAAKQIKDGVTMAPAFRL [FSD1], the protein stability index reads like this: under setting [1], 4.24 ± 0.11; under setting [2], 4.33 ± 0.28.
On to VQKEHEEYMKNLLKVGGILVMPLE [PCMTD2], for which the protein stability index reads like this: under setting [1], 2.69 ± 0.21; under setting [2], 2.7 ± 0.17.
In the same order, the values of SISASSARFVSSGSGGGYGGGMRV [KRT15] are 3.02 ± 0.22 and 3.55 ± 0.23.
As for IPIFNETGRFSFTLPYPVKIKVRF [HACD3], the protein stability index reads like this: under setting [1], 2.92 ± 1.2; under setting [2], 2.77 ± 0.44.
On to GNNPNGREAKMICFKSVAKTPYDT [ELOA2], for which the protein stability index is, setting by setting: under setting [1], 3.84 ± 0.43; under setting [2], 3.93 ± 0.3.
On to GQLDEKEKDLVGLAQIAEVLEMFD [RHOBTB1], for which the protein stability index under setting [1] was determined as 3.4 ± 0.37 and the protein stability index under setting [2] was 3.61 ± 0.58.
On to RSVSLSMRKSGAMKKGGIFSAEFL [BNIP3L], for which the protein stability index reads like this: under setting [1], 2.8 ± 0.3; under setting [2], 2.95 ± 0.34.
As to GSNYANFELDLGKKVLNLLKGAFP [PTPN9], the protein stability index by setting is: under setting [1], 2.29 ± 0.42; under setting [2], 2.12 ± 0.35.
Take ISPSTLKNSLFPSPISSISPGLHS [KCNK9]: the protein stability index worked out at 2.71 ± 0.56 under setting [1] and 2.76 ± 0.56 under setting [2].
The like results for SEGELGGPSEPGGTHPEDHQGHSD [RHOBTB2] were, in that order, 5.54 ± 0.32 and 5.49 ± 0.29.
For CRQRLIFEQTPALTKHEWTEALGC [ZNF8], the protein stability index runs as follows: under setting [1], 2.38 ± 0.2; under setting [2], 2.42 ± 0.26.
In the case of SFGLRFGKREAAPGNHGRSAGRG [KISS1], the protein stability index came to 3.23 ± 0.21 under setting [3] and 2.64 ± 0.45 under setting [4].
For the sequence IVILENIAVAWIYGTKKFMQELTE [SLC6A17], the protein stability index under setting [1] was determined as 3.05 ± 1 and the protein stability index under setting [2] is 2.92 ± 0.2.
On to RNYLNYGEEGAPGKWQQQGDLQDT [CHGB], for which the protein stability index by setting is: under setting [1], 4.86 ± 0.14; under setting [2], 4.94 ± 0.39.
For RTTPSRREITGVQAQPGEATSGPP [PALM], the protein stability index was determined as 5.25 ± 0.35 under setting [1] and 5.2 ± 0.093 under setting [2].
Turning to KSELSDGIAILVGSNDRVQGVISQ [TRIM55], the protein stability index was found to be 3.46 ± 0.31 under setting [1] and 3.52 ± 0.34 under setting [2].
For PRLHIVKADENNGFGSKNTAFCTH [TBX5], the protein stability index under setting [1] was found to be 3.43 ± 0.12 and the protein stability index under setting [2] came to 3.28 ± 0.049.
Consider AQSEAEKKLKKDDKKKELQELNEL [ZC3H15], for which the protein stability index by setting is: under setting [1], 5.56 ± 0.23; under setting [2], 5.53 ± 0.21.
Sequence SLAYCLACGGGHLLPYFYIIYMAI [DHCR7] registered a protein stability index under setting [1] of 2.6 ± 0.64 and a protein stability index under setting [2] of 2.45 ± 0.31.
For the sequence ASLKGYQWLKDKILSEEGRRQQAK [KCNAB2], the protein stability index runs as follows: under setting [1], 3.69 ± 0.18; under setting [2], 3.67 ± 0.21.
Turning to LSQRTITVGVYEAAKLLNVDPDNV [GADD45A], the protein stability index is, setting by setting: under setting [1], 3.16 ± 0.29; under setting [2], 3.14 ± 0.19.
As for RHMEAVKAQLLEQAQGQLRELLDR [SOAT2], the protein stability index under setting [1] came out at 3.07 ± 0.37 and the protein stability index under setting [2] stood at 3.08 ± 0.086.
Turning to EFVNGWYILLVTSDVLTISGTIMK [MCOLN1], the protein stability index is, setting by setting: under setting [1], 3.06 ± 0.26; under setting [2], 3.08 ± 0.33.
For DQEMARDLVERALYSMECAFHPLF [TCF25], the protein stability index was determined as 2.35 ± 0.34 under setting [1] and 2.09 ± 0.35 under setting [2].
The like results for GTPMALIVISYIHVAAAVLRIRSV [OR3A1] were, in that order, 3.16 ± 0.48 and 3.24 ± 0.074.
